Measured values reported in paper PMC9520037 (The Journal of Biological Chemistry, 2022).

Molecular target: T1, MAP2c-1-467 with N-terminal histidine tag (H6-MAP2c) (rat, UniProt P15146-3 1-467, RED-tris-NTA fluorescent label on the histidine tag)
T1 sequence: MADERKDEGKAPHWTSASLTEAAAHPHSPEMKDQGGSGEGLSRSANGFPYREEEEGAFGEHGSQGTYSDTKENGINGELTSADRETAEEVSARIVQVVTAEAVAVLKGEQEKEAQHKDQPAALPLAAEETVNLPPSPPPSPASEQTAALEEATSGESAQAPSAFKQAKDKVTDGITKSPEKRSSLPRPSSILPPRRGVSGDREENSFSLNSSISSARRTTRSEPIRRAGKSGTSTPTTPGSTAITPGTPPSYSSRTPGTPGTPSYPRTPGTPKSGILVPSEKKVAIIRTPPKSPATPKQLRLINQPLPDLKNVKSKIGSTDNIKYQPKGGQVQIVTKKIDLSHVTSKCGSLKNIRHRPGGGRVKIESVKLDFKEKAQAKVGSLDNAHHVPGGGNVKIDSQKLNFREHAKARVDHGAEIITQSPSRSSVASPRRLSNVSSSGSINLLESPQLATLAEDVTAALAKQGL
Test: MST

Kd: 0.022 ± 0.005 µM
B1: SH3 domain of Fyn fused to hexahistidine tag (Fyn-SH3) (domain or fragment)
chain: not shown
